Here are results for 125 sequences from the supplement of paper PMC9112550, “Optimization of the antimicrobial peptide Bac7 by deep mutational scanning” (BMC Biology, 2022).

In this series the test system is Escherichia coli TOP10. In words: shrunken log2 fold change of peptide-encoding DNA abundance (4.5 h post-induction vs induction); higher = less antimicrobial activity (less host growth inhibition). The conditions noted are these: time post-induction: 4.5 h; library: site-saturation at positions 5, 18, 19, 20.
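Further: peptides expressed intracellularly from a pBAD plasmid library in pooled LB shake-flask culture, induced with 0.3% L-arabinose, DNA abundance read by NGS, three biological replicates, DESeq2 with apeglm shrinkage.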

In the case of RRIRYRPPRLPRPRPRPDASPRP, the “shrunken log2 fold change” value was -0.00663.

For RRIRVRPPRLPRPRPRPYHTPRP, the “shrunken log2 fold change” value is -0.15.

As for RRIRRRPPRLPRPRPRPKCPPRP, the “shrunken log2 fold change” value was found to be 0.278.

In the case of RRIRHRPPRLPRPRPRPYPQPRP, the “shrunken log2 fold change” value is -0.546.

For the sequence RRIRRRPPRLPRPRPRPERGPRP, the “shrunken log2 fold change” value worked out at 0.798.

Turning to RRIRNRPPRLPRPRPRPQNAPRP, the “shrunken log2 fold change” value is -0.011.

Regarding RRIRSRPPRLPRPRPRPAHQPRP, the “shrunken log2 fold change” value was -0.0659.

Turning to RRIRPRPPRLPRPRPRPDHRPRP, the “shrunken log2 fold change” value is -0.0495.

For RRIRLRPPRLPRPRPRPAGGPRP, the “shrunken log2 fold change” value was 0.169.

For RRIRPRPPRLPRPRPRPSNLPRP, the “shrunken log2 fold change” value is -0.823.

In the case of RRIRQRPPRLPRPRPRPSGSPRP, the “shrunken log2 fold change” value was -0.0833.

RRIRWRPPRLPRPRPRPVFGPRP: the “shrunken log2 fold change” value is 0.159.

Consider RRIRHRPPRLPRPRPRPIKWPRP, for which the “shrunken log2 fold change” value came to 0.126.

With RRIRGRPPRLPRPRPRPCVSPRP, the “shrunken log2 fold change” value was determined as 0.265.

On to RRIRKRPPRLPRPRPRPNTAPRP, for which the “shrunken log2 fold change” value amounted to 0.159.

Turning to RRIRYRPPRLPRPRPRPQLHPRP, the “shrunken log2 fold change” value was -0.395.

For the sequence RRIRQRPPRLPRPRPRPNHAPRP, the “shrunken log2 fold change” value was -0.474.

As for RRIRCRPPRLPRPRPRPQNFPRP, the “shrunken log2 fold change” value is -0.43.

As for RRIRQRPPRLPRPRPRPHSRPRP, the “shrunken log2 fold change” value was -0.17.

On to RRIRHRPPRLPRPRPRPWYAPRP, for which the “shrunken log2 fold change” value was -0.41.

With RRIRGRPPRLPRPRPRPAQMPRP, the “shrunken log2 fold change” value turned out to be 0.305.

As for RRIRKRPPRLPRPRPRPRHKPRP, the “shrunken log2 fold change” value is 0.458.

With RRIRIRPPRLPRPRPRPVGKPRP, the “shrunken log2 fold change” value is -0.118.

For the sequence RRIRRRPPRLPRPRPRPIRWPRP, the “shrunken log2 fold change” value is 0.0197.

For RRIRVRPPRLPRPRPRPYKSPRP, the “shrunken log2 fold change” value is -0.492.

For the sequence RRIRQRPPRLPRPRPRPKQAPRP, the “shrunken log2 fold change” value was found to be 0.0135.

Consider RRIRWRPPRLPRPRPRPWGIPRP, for which the “shrunken log2 fold change” value came out at 0.0114.

On to RRIRLRPPRLPRPRPRPRDDPRP, for which the “shrunken log2 fold change” value was 0.108.

For RRIRIRPPRLPRPRPRPHNYPRP, the “shrunken log2 fold change” value is -0.376.

As for RRIRPRPPRLPRPRPRPYPQPRP, the “shrunken log2 fold change” value was -0.252.

In the case of RRIRRRPPRLPRPRPRPRCDPRP, the “shrunken log2 fold change” value came out at 0.306.

In the case of RRIRKRPPRLPRPRPRPPPVPRP, the “shrunken log2 fold change” value was determined as 0.751.

Regarding RRIRNRPPRLPRPRPRPTENPRP, the “shrunken log2 fold change” value was 0.0685.

RRIRMRPPRLPRPRPRPWMAPRP: the “shrunken log2 fold change” value is -0.0347.

For the sequence RRIRSRPPRLPRPRPRPAGWPRP, the “shrunken log2 fold change” value was 0.795.

For the sequence RRIRRRPPRLPRPRPRPYESPRP, the “shrunken log2 fold change” value was determined as 0.0181.

Regarding RRIRRRPPRLPRPRPRPFYQPRP, the “shrunken log2 fold change” value is -0.46.

For the sequence RRIRLRPPRLPRPRPRPKALPRP, the “shrunken log2 fold change” value was -0.224.

Turning to RRIRIRPPRLPRPRPRPCVWPRP, the “shrunken log2 fold change” value was -0.242.

Take RRIRGRPPRLPRPRPRPICVPRP: the “shrunken log2 fold change” value was determined as 0.269.

With RRIRKRPPRLPRPRPRPAAGPRP, the “shrunken log2 fold change” value turned out to be 0.896.

Consider RRIRDRPPRLPRPRPRPSCVPRP, for which the “shrunken log2 fold change” value amounted to 0.282.

With RRIRNRPPRLPRPRPRPTKRPRP, the “shrunken log2 fold change” value is -0.301.

As to RRIRWRPPRLPRPRPRPEMRPRP, the “shrunken log2 fold change” value stood at 2.09.

In the case of RRIRWRPPRLPRPRPRPHCPPRP, the “shrunken log2 fold change” value was -0.0401.

On to RRIRIRPPRLPRPRPRPPIVPRP, for which the “shrunken log2 fold change” value is -0.68.

As for RRIRPRPPRLPRPRPRPPHGPRP, the “shrunken log2 fold change” value turned out to be 0.374.

With RRIRCRPPRLPRPRPRPFNQPRP, the “shrunken log2 fold change” value is -0.421.

With RRIRDRPPRLPRPRPRPMHFPRP, the “shrunken log2 fold change” value was -0.142.

Regarding RRIRMRPPRLPRPRPRPGGYPRP, the “shrunken log2 fold change” value is 0.0413.

In the case of RRIRFRPPRLPRPRPRPDMWPRP, the “shrunken log2 fold change” value was -1.03.

RRIRLRPPRLPRPRPRPERWPRP: the “shrunken log2 fold change” value turned out to be 0.637.

As for RRIRQRPPRLPRPRPRPNALPRP, the “shrunken log2 fold change” value was determined as 0.023.

RRIRPRPPRLPRPRPRPCIGPRP: the “shrunken log2 fold change” value was 0.00708.

In the case of RRIRVRPPRLPRPRPRPDFNPRP, the “shrunken log2 fold change” value was -0.344.

RRIRARPPRLPRPRPRPQTNPRP: the “shrunken log2 fold change” value is 0.36.

In the case of RRIRERPPRLPRPRPRPSWIPRP, the “shrunken log2 fold change” value is -0.0746.

As for RRIRERPPRLPRPRPRPGAIPRP, the “shrunken log2 fold change” value is -0.187.

For RRIRGRPPRLPRPRPRPTFHPRP, the “shrunken log2 fold change” value turned out to be 0.366.

Turning to RRIRMRPPRLPRPRPRPRCPPRP, the “shrunken log2 fold change” value is 0.757.

With RRIRPRPPRLPRPRPRPVKNPRP, the “shrunken log2 fold change” value stood at 0.00624.

Take RRIRSRPPRLPRPRPRPDSRPRP: the “shrunken log2 fold change” value amounted to 0.148.

For the sequence RRIRHRPPRLPRPRPRPNCLPRP, the “shrunken log2 fold change” value was -0.0125.

RRIRGRPPRLPRPRPRPHYVPRP: the “shrunken log2 fold change” value was -0.0585.

Consider RRIRVRPPRLPRPRPRPWFYPRP, for which the “shrunken log2 fold change” value is -0.373.

In the case of RRIRARPPRLPRPRPRPDTDPRP, the “shrunken log2 fold change” value turned out to be 0.365.

Consider RRIRGRPPRLPRPRPRPDKPPRP, for which the “shrunken log2 fold change” value was determined as 0.415.

As to RRIRWRPPRLPRPRPRPATCPRP, the “shrunken log2 fold change” value was determined as 0.275.

Regarding RRIRWRPPRLPRPRPRPYHCPRP, the “shrunken log2 fold change” value is -0.276.

Turning to RRIRKRPPRLPRPRPRPENQPRP, the “shrunken log2 fold change” value was determined as 0.156.

On to RRIRARPPRLPRPRPRPTVWPRP, for which the “shrunken log2 fold change” value amounted to 0.552.

Consider RRIRGRPPRLPRPRPRPPYPPRP, for which the “shrunken log2 fold change” value came out at 0.291.

As for RRIRPRPPRLPRPRPRPTPWPRP, the “shrunken log2 fold change” value came to 0.427.

On to RRIRERPPRLPRPRPRPVEPPRP, for which the “shrunken log2 fold change” value came to 0.0248.

As to RRIRARPPRLPRPRPRPPQQPRP, the “shrunken log2 fold change” value turned out to be 0.758.

As for RRIRKRPPRLPRPRPRPPQCPRP, the “shrunken log2 fold change” value stood at 0.26.

Take RRIRMRPPRLPRPRPRPQVGPRP: the “shrunken log2 fold change” value was found to be 0.12.

With RRIRWRPPRLPRPRPRPKFDPRP, the “shrunken log2 fold change” value is -0.0572.

With RRIRGRPPRLPRPRPRPWNPPRP, the “shrunken log2 fold change” value was -0.448.

As for RRIRFRPPRLPRPRPRPLSPPRP, the “shrunken log2 fold change” value was -0.476.

As for RRIRERPPRLPRPRPRPVQWPRP, the “shrunken log2 fold change” value was 0.149.

As for RRIRIRPPRLPRPRPRPKKWPRP, the “shrunken log2 fold change” value was -0.00764.

Turning to RRIRWRPPRLPRPRPRPPVPPRP, the “shrunken log2 fold change” value was 0.469.

For the sequence RRIRGRPPRLPRPRPRPIKWPRP, the “shrunken log2 fold change” value worked out at 0.434.

On to RRIRNRPPRLPRPRPRPIFQPRP, for which the “shrunken log2 fold change” value was -0.0287.

Turning to RRIRPRPPRLPRPRPRPPVWPRP, the “shrunken log2 fold change” value is 0.27.

RRIRWRPPRLPRPRPRPKSKPRP: the “shrunken log2 fold change” value turned out to be 0.194.

As to RRIRHRPPRLPRPRPRPPDQPRP, the “shrunken log2 fold change” value turned out to be 0.594.

Turning to RRIRVRPPRLPRPRPRPNGKPRP, the “shrunken log2 fold change” value is -0.407.

As to RRIRYRPPRLPRPRPRPMSIPRP, the “shrunken log2 fold change” value was -0.563.

For RRIRYRPPRLPRPRPRPVHKPRP, the “shrunken log2 fold change” value was -0.564.

For the sequence RRIRGRPPRLPRPRPRPERDPRP, the “shrunken log2 fold change” value was 0.955.

On to RRIRPRPPRLPRPRPRPSLKPRP, for which the “shrunken log2 fold change” value was -0.25.

Take RRIRQRPPRLPRPRPRPCQAPRP: the “shrunken log2 fold change” value was -0.187.

In the case of RRIRNRPPRLPRPRPRPVVEPRP, the “shrunken log2 fold change” value is -0.00885.

In the case of RRIRKRPPRLPRPRPRPHIEPRP, the “shrunken log2 fold change” value was -0.891.

Regarding RRIRHRPPRLPRPRPRPEFAPRP, the “shrunken log2 fold change” value was found to be 0.0409.

RRIRMRPPRLPRPRPRPAAWPRP: the “shrunken log2 fold change” value was 0.11.

Take RRIRNRPPRLPRPRPRPGDAPRP: the “shrunken log2 fold change” value was found to be 0.102.

RRIRIRPPRLPRPRPRPWICPRP: the “shrunken log2 fold change” value is -0.132.

On to RRIRMRPPRLPRPRPRPYGYPRP, for which the “shrunken log2 fold change” value is 0.0362.

With RRIRSRPPRLPRPRPRPLKTPRP, the “shrunken log2 fold change” value is -0.0127.

Consider RRIRYRPPRLPRPRPRPSSFPRP, for which the “shrunken log2 fold change” value is -0.0941.

As for RRIRHRPPRLPRPRPRPLTMPRP, the “shrunken log2 fold change” value is -0.3.

Consider RRIRARPPRLPRPRPRPCIRPRP, for which the “shrunken log2 fold change” value was -0.365.

Consider RRIRQRPPRLPRPRPRPNPEPRP, for which the “shrunken log2 fold change” value came out at 0.0266.

RRIRDRPPRLPRPRPRPSVMPRP: the “shrunken log2 fold change” value stood at 0.198.

With RRIRVRPPRLPRPRPRPFIQPRP, the “shrunken log2 fold change” value was -0.449.

RRIRLRPPRLPRPRPRPFWGPRP: the “shrunken log2 fold change” value is -0.507.

In the case of RRIRVRPPRLPRPRPRPQVCPRP, the “shrunken log2 fold change” value is -0.0138.

Take RRIRDRPPRLPRPRPRPEYPPRP: the “shrunken log2 fold change” value is -0.0367.

Consider RRIRCRPPRLPRPRPRPRWNPRP, for which the “shrunken log2 fold change” value came to 2.15.

As for RRIRERPPRLPRPRPRPWSYPRP, the “shrunken log2 fold change” value came to 0.0168.

As to RRIRHRPPRLPRPRPRPEHKPRP, the “shrunken log2 fold change” value stood at 0.000824.

Take RRIRARPPRLPRPRPRPMRLPRP: the “shrunken log2 fold change” value is 1.29.

Consider RRIRWRPPRLPRPRPRPDIEPRP, for which the “shrunken log2 fold change” value is -0.0323.

RRIRSRPPRLPRPRPRPMAEPRP: the “shrunken log2 fold change” value is 0.348.

Turning to RRIRMRPPRLPRPRPRPYFSPRP, the “shrunken log2 fold change” value is -0.177.

Regarding RRIRYRPPRLPRPRPRPSGNPRP, the “shrunken log2 fold change” value is -0.067.

In the case of RRIRKRPPRLPRPRPRPPITPRP, the “shrunken log2 fold change” value was found to be 0.0882.

As to RRIRHRPPRLPRPRPRPPLCPRP, the “shrunken log2 fold change” value was 0.0792.

On to RRIRPRPPRLPRPRPRPHIVPRP, for which the “shrunken log2 fold change” value was -0.481.

Turning to RRIRFRPPRLPRPRPRPEYQPRP, the “shrunken log2 fold change” value is -0.0212.

As for RRIRRRPPRLPRPRPRPRCNPRP, the “shrunken log2 fold change” value was -0.223.

In the case of RRIRKRPPRLPRPRPRPVYLPRP, the “shrunken log2 fold change” value was -0.326.
